The text below walks through data of patent US7090842.

For assay [1], the target named is mouse anti-CEA monoclonal antibody 8019. The experiment in a line: competition: Ab2 blocks binding of 8019 to CEA on MCF-7 cells.
The target is the same in assay [2]. The experiment in a line: competition RIA, labeled Ab2 (3H1) on 8019-coated plates, 250 ng unlabeled 3H1.
Assay [3] has the same target. The assay can be described thus: competition RIA, labeled Ab2 (3H1) on 8019-coated plates with 0.125 µg unlabeled 3H1.
The target is the same in assay [4]. The assay can be described thus: RIA, labeled Ab2 (3H1) on 8019-coated plates, no inhibitor.
For assay [5] the target is unchanged. The assay can be described thus: competition RIA, labeled Ab2 (3H1) bound to 8019-coated plates with 0.125 µg unlabeled 3H1.
For assay [6] the target is unchanged. The assay can be described thus: plate RIA, inhibition of radiolabeled 8019 binding to semipurified CEA, 25 ng 3H1.

B1: monoclonal anti-idiotype antibody 3H1 (antibody, V domains shown)
VH: EVQLQQSGPELVKPGASLKISCEASGYSLTAYTMNWVKQSHGKSLEWVGLINPFSGDTNYSQKFTGKATLTVDRSSSTAYMELLSLTSEDSAVYYCVITPVPYWYFDVWGAGTTVTVSS
VL: DIKMTQSPSSMYASLGERVTITCKASQDINGYLNWFQQEPGKSPKTLIYRANRLIDGVPSRFSGSGSGQVYSLTISSLEYEDMGTYYCLQFDEFPWMFGGGTKLEIK
As for B1, the percent inhibition in assay [1] is above 85%; in assay [2], above 90%; in assay [3], 97%; in assay [6], 100%. The cpm Bound in assay [4] worked out at 12000 cpm; in assay [5] it was 439 cpm.
